# Laboratory results: PMC10985028 (Acta Pharmaceutica Sinica. B, 2024)
# T1: HA-tagged USP48 (human, UniProt Q86UV5 1-1035)
# T1 sequence (looked up): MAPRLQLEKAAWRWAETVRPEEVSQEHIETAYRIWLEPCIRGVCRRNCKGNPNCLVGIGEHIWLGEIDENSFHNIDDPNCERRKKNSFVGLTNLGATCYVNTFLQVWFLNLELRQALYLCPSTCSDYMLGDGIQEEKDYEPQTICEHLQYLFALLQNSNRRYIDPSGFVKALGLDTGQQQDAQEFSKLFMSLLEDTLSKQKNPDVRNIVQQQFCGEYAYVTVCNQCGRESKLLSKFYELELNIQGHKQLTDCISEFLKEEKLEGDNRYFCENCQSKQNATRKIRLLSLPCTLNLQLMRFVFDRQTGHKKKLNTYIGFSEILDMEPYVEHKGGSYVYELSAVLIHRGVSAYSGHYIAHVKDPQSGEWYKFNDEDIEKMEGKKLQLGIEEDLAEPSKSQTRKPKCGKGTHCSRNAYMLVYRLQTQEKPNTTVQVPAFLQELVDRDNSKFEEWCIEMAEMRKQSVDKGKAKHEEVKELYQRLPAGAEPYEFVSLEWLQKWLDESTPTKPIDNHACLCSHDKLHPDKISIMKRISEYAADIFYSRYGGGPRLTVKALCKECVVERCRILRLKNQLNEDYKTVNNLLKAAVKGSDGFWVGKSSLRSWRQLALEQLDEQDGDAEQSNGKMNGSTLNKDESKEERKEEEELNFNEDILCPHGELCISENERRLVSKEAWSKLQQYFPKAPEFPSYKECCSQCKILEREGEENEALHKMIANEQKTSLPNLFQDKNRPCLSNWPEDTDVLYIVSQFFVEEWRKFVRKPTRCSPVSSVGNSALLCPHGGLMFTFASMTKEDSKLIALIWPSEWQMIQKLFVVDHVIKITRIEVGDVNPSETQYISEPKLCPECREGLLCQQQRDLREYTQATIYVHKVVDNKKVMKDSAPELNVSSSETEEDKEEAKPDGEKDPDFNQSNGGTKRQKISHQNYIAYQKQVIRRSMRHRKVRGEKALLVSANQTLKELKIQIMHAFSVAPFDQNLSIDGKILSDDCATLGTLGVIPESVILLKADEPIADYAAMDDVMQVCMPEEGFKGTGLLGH
# Target: T1, HA-tagged USP48
# Assay: pull-down
binder,measurement,value
"GST-HMGA2 (natural protein, human, UniProt P52926 1-109, looked up) MSARGEGAGQPSTSAQGQPAAPAPQKRGRGRPRKQQQEPTGEPSPKRPRGRPKGSKNKSPSKAAQKKAEATGEKRPRGRPRKWPQQVVQKKPAQEETEETSSQESAEED",binding result,binds
